This note sets out measurements from US20200392528A1, “IMPROVED PLANT EPSP SYNTHASES AND METHODS OF USE” (PIONEER HI-BRED INTERNATIONAL, INC., priority 2017, published 2020).

Data set [1] relates to soybean EPSPS. Briefly: kcat gly: enzyme turnover under application conditions, soybean variants. As to conditions: for kcat gly: soybean variants. It counts as biochemical. The method, then:
(§1) A more straight-forward, accurate and meaningful parameter is one in which one rate measurement is performed under presumed in vivo conditions, if known. To establish a set of conditions that mimic those under which the mutated enzyme needs to perform, the concentrations of PEP and S3P were set low (30 uM, subject to the sensitivity of assay conditions) to approach the presumed intracellular concentrations (˜15 uM, the approximate values of KM for both PEP and S3P). Glyphosate is included at 1 mM. The pH is set at 7.0 and ionic strength at 100 mM KCl, also to mimic known in vivo conditions. Ethylene glycol is present at 5% (v/v) to approximate the dielectric constant of intracellular fluid. The parameter is termed “enzyme turnover under application conditions”, which is herein shortened to “kcat gly”. The conventional formatting of the expression “kcat” is not used, to avoid this term being characterized as a standard kinetic constant.
EPSPS activity was determined by quantifying the phosphate generated from the EPSPS reaction. Release of inorganic phosphate was coupled to its reaction with 2-amino-6-mercapto-7-methylpurine ribonucleoside (MESG), catalyzed by purine nucleoside phosphorylase, according to previously described protocols. To determine the kcat gly, enzyme preparations were normalized to 0.1 mg/ml and four- to six-microliter aliquots of normalized enzyme were added to the wells of a low UV-absorbing 96-well assay plate (Greiner UV-Star). Reactions were started with the addition of 2×147 μl of reaction mixture containing 25 mM Hepes, pH 7.0, 100 mM KCl, 5% ethylene glycol, 30 μM each of PEP and S3P, 0.15 mM MESG, 1.5 U/ml purine nucleoside phosphorylase (Sigma N8264) and 1 mM glyphosate. Absorbance was monitored at 4 sec intervals for 50 sec with a Spectramax plate reader (Molecular Devices). […] Division by the enzyme concentration (0.04 to 0.1 uM, depending on activity) yields “kcat gly” in units of min^−1. […]
A library was constructed and screened as above. […] The library was constructed, screened and evaluated by the methods described in Examples 1 and 2.

In data set [2] the test system is rice EPSPS. As to the kind of experiment: kcat gly: enzyme turnover under application conditions, rice orthologs. As to conditions: Table 5. It counts as biochemical, rice (Oryza sativa). The method, then: as §1
EPSPS activity was determined by quantifying the phosphate generated from the EPSPS reaction. Release of inorganic phosphate was coupled to its reaction with 2-amino-6-mercapto-7-methylpurine ribonucleoside (MESG), catalyzed by purine nucleoside phosphorylase, according to previously described protocols. To determine the kcat gly, enzyme preparations were normalized to 0.1 mg/ml and four- to six-microliter aliquots of normalized enzyme were added to the wells of a low UV-absorbing 96-well assay plate (Greiner UV-Star). Reactions were started with the addition of 2×147 μl of reaction mixture containing 25 mM Hepes, pH 7.0, 100 mM KCl, 5% ethylene glycol, 30 μM each of PEP and S3P, 0.15 mM MESG, 1.5 U/ml purine nucleoside phosphorylase (Sigma N8264) and 1 mM glyphosate. Absorbance was monitored at 4 sec intervals for 50 sec with a Spectramax plate reader (Molecular Devices). […] Division by the enzyme concentration (0.04 to 0.1 uM, depending on activity) yields “kcat gly” in units of min^−1.
Only variable positions are shown. Naturally occurring differences in the rice sequence from the maize sequence are shown. The mutations designed to create rice orthologs of selected maize variants are shown. Genes designed to encode the rice orthologs were synthesized by a commercial provider and expressed and purified as described above.
Fitness is indicated by the parameter kcat gly, defined in Example 1.

B1: Gm F3: soybean EPSPS variant from combinatorial library, SEQ ID NO: 13 (protein)
chain: MAAAEKPSTSPEIVLEPIKDFSGTITLPGSKSLSNRILLLAALSEGTTVVDNLLYSEDIHYMLGALRTLGLRVEDDKTTKQAIVEGCGGLFPTSKESKDEINLFCGNAATAMRPLTAAVVAAGGNASYVLDGVPRMRERPIGDLVAGLKQLGADVDCFLGTNCPPVRVNGKGGLPGGKVKLSGSVSSQYLTALLMAAPLALGDVEIEIVDKLISVPYVEMTLKLMERFGVSVEHSGNWDRFLVHGGQKYKSPGNAFVEGDASSASYLLAGAAITGGTITVNGCGTSSLQGDVKFAEVLEKMGAKVTWSENSVTVSGPPRDFSGRKVLRGIDVNMNKMPDVAMTLAVVALFANGPTAIRDVASWRVKESERMIAICTELRKLGATVEEGPDYCVITPPEKLNVTAIDTYGDHRMAMAFSLAACGDVPVTIKDPGCTRKTFPDYFEVLERLTKH
modifications: Glycine max
For the molecule B1, the kcat gly in data set [1] amounted to 0.938 s⁻¹.

B2: Gm F3-02-A7: soybean EPSPS variant, SEQ ID NO: 15 (protein)
chain: MAAAEKPSTSPEIVLEPIKDFSGTITLPGSKSLSNRILLLAALSEGTTVVDNLLYSEDIHYMLGALRTLGLRVEDDKTTKQAIVEGCGGLFPTSKESKDEINLFCGNAATAMRPLTAAVVAAGGNASYVLDGVPRMRERPIGDLVAGLKQLGADVDCFLGTNCPPVRVNGKGGLPGGKVKLSGSVSSQYLTALLMAAPLALGDVEIEIVDKLISVPYVEMTLKLMERFGVSVEHSGNWDRFLVHGGQKYKSPGNAFVEGDASSASYLLAGAAITGGTITVNGCGTSSLQGDVKFAEVLEKMGAKVTWSENSVTVSGPPRDFSGRKVLRGIDVNMNKMPDAAMTLAVVALFANGPTAIRDVASWRVKESERMIAICTELRKLGATVEEGPDYCVITPPEKLNVTAIDTYGDHRMAMAFSLAACGDVPVTIKDPGCTRKTFPDYFEVLERLTKH
modifications: Glycine max
For B2, the kcat gly in data set [1] came out at 1.34 s⁻¹.

B3: Gm F3-V340A: soybean EPSPS variant Gm F3 with V340A, SEQ ID NO: 14 (protein)
chain: MAAAEKPSTSPEIVLEPIKDFSGTITLPGSKSLSNRILLLAALSEGTTVVDNLLYSEDIHYMLGALRTLGLRVEDDKTTKQAIVEGCGGLFPTSKESKDEINLFCGNAATAMRPLTAAVVAAGGNASYVLDGVPRMRERPIGDLVAGLKQLGADVDCFLGTNCPPVRVNGKGGLPGGKVKLSGSVSSQYLTALLMAAPLALGDVEIEIVDKLISVPYVEMTLKLMERFGVSVEHSGNWDRFLVHGGQKYKSPGNAFVEGDASSASYLLAGAAITGGTITVNGCGTSSLQGDVKFAEVLEKMGAKVTWSENSVTVSGPPRDFSGRKVLRGIDVNMNKMPDAAMTLAVVALFANGPTAIRDVASWRVKESERMIAICTELRKLGATVEEGPDYCVITPPEKLNVTAIDTYGDHRMAMAFSLAACGDVPVTIKDPGCTRKTFPDYFEVLERLTKH
modifications: Glycine max
For B3, the “fitness (kcat gly) compared with Gm F3” value in data set [1] was “significant fitness improvement”.

B4: Os F3-88: rice EPSPS ortholog of Zm F3-88, SEQ ID NO: 19 (protein, listed as Oryza sativa)
chain: MAKAEEIVLQPIREISGAVQLPGSKSLSNRILLLSALSEGTTVVDNLLNSEDVGYMLEALKALGLSVEADKVAKRAVVVGCGGKFPVEKDAKEEVQLFCGNAATAMRPLTAAVTAAGGNATYVLDGVPRMRERPIGDLVVGLKQLGADVDCFLGTECPPVRVKGIGGLPGGKVKLSGSISSQYLSALLMAAPLALGDVEIEIIDKLISIPYVEMTLVLMERFGVKAYHSDSWDRFYIKGGQKYKSPGNAYVEGDASSASYFLAGAAITGGTVTVQGCGTTSLQGDVKFAEVLEMMGAAVTWTDTSVTVTGPPREPYGKKHLKAVDVNMNKMPDAAMTLAVVALFADGPTAIRDVASWRVKESERMVAIRTELTKLGASVEEGPDYCIITPPEKLNITAIDTYGDHRMAMAFSLAACADVPVTIRDPGCTAKTFPNYFDVLSTFVRN
As for B4, the kcat gly in data set [2] came to 1.04 s⁻¹.

B5: Os D2-67: rice EPSPS ortholog of Zm D2-67, SEQ ID NO: 17 (protein, listed as Oryza sativa)
chain: MRKWEEIVLQPIREISGAVQLPGSKSLSNRILLLSALSEGTTVVDNLLNSEDVHYMLEALKALGLSVEHDKVAKRAVVVGCGGRFPVEKDAKGEVQLFCGNAATAMRPLTAAVTAAGGNATYVLDGVPRMRERPIGDLVVGLKQLGADVDCFLGTECPPVRVKGIGGLPGGKVKLSGSISSQYLSALLMAAPLALGDVEIEIIDKLISLPYVEMTLRLMERFGVKAEHSDSWDRFYIKGGQKYESPGNAYVEGDASSASYFLAGAAITGGTVTVQGCGTTSLQGDVKFAEVLEMMGAKVTWTDTSVTVTGPPREPYGKKHLKAVDVNMNKMPDAAMTLAVVALFADGPTAIRDVASWRVKETERMVAIRTELTKLGASVEEGPDYCIITPPPKLNITAIDTYGDHRMAMAFSLAACADVPVTIRDPGCTRKTFPNYFDVLSTFVRN
For the molecule B5, the kcat gly in data set [2] came to 1.7 s⁻¹.

B6: Os F3: rice EPSPS ortholog of Zm F3, SEQ ID NO: 18 (protein, listed as Oryza sativa)
chain: MAKAEEIVLQPIREISGAVQLPGSKSLSNRILLLSALSEGTTVVDNLLNSEDVHYMLEALKALGLSVEADKVAKRAVVVGCGGKFPVEKDAKEEVQLFCGNAATAMRPLTAAVTAAGGNATYVLDGVPRMRERPIGDLVVGLKQLGADVDCFLGTECPPVRVKGIGGLPGGKVKLSGSISSQYLSALLMAAPLALGDVEIEIIDKLISIPYVEMTLRLMERFGVKAEHSDSWDRFYIKGGQKYKSPGNAYVEGDASSASYFLAGAAITGGTVTVQGCGTTSLQGDVKFAEVLEMMGAKVTWTDTSVTVTGPPREPYGKKHLKAVDVNMNKMPDVAMTLAVVALFADGPTAIRDVASWRVKESERMVAIRTELTKLGASVEEGPDYCIITPPEKLNITAIDTYGDHRMAMAFSLAACADVPVTIRDPGCTRKTFPNYFDVLSTFVRN
For the molecule B6, the kcat gly in data set [2] turned out to be 0.65 s⁻¹.

B7: Os D2: rice EPSPS ortholog of Zm D2, SEQ ID NO: 16 (protein, listed as Oryza sativa)
chain: MRKWEEIVLQPIREISGAVQLPGSKSLSNRILLLSALSEGTTVVDNLLNSEDVHYMLEALKALGLSVEHDKVAKRAVVVGCGGRFPVEKDAKGEVQLFCGNAATAMRPLTAAVTAAGGNATYVLDGVPRMRERPIGDLVVGLKQLGADVDCFLGTECPPVRVKGIGGLPGGKVKLSGSISSQYLSALLMAAPLALGDVEIEIIDKLISLPYVEMTLRLMERFGVKAEHSDSWDRFYIKGGQKYESPGNAYVEGDASSASYFLAGAAITGGTVTVQGCGTTSLQGDVKFAEVLEMMGAKVTWTDTSVTVTGPPREPYGKKHLKAVDVNMNKMPDAAMTLAVVALFADGPTAIRDVASWRVKETERMVAIRTELTKLGASVEEGPDYCIITPPPKLNITAIDTYGDHRMAMAFSLAACADVPVTIRDPGCTRKTFPNYFDVLSTFVRN
Turning to B7, in data set [2], the kcat gly was found to be 1.48 s⁻¹.
